The results in this text go back to patent publication US20240166760A1 (UNIVERSITY OF PITTSBURGH OF THE COMMONWEALTH SYSTEM OF …, published 2024).

For orientation: Kd means the free concentration of one partner at which half of the binding sites on the other are occupied at equilibrium, for simple one-to-one binding. Read a low Kd as tighter binding. The term EC50 denotes the concentration at which the effect is half-maximal. A higher EC50 goes with a less potent agent.

The target in experiment [1] is T1, Human IgG1 Fc-fused CEACAM5 A3B3 (residues 501-682) (human, UniProt P06731 501-682).
T1 construct: Expressed in Freestyle HEK cells and N-glycosylated; also called CEACAM5 A3B3-Fc; A3B3-Fc; not shown: human immunoglobulin 1 Fc region (hIgG1 Fc)
T1 sequence: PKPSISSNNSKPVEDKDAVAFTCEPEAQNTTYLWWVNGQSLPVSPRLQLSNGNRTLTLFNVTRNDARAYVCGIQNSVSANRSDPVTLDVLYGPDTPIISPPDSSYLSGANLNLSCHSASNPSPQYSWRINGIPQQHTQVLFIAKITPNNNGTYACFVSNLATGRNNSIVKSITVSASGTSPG
Kind of experiment: SPR (BIAcore).

The target of experiment [2] is T2, Human IgG1 Fc-fused CEACAM5 A1B1 (residues 145-322) (human, UniProt P06731 145-322).
T2 construct: also called CEACAM5 A1B1-Fc; A1B1 domains of CEACAM5; not shown: human immunoglobulin 1 Fc region (hIgG1 Fc)
T2 sequence: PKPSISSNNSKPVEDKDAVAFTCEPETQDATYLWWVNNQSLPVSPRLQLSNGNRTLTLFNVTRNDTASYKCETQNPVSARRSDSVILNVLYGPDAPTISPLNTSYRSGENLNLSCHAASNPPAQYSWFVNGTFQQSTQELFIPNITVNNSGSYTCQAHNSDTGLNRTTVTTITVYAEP
Put plainly: indirect ELISA / BIAcore.

Experiment [3] deals with T3, Human IgG1 Fc-fused CEACAM5 A2B2 (residues 323-500) (human, UniProt P06731 323-500).
T3 construct: also called CEACAM5 A2B2-Fc; A2B2 domains of CEACAM5; not shown: human immunoglobulin 1 Fc region (hIgG1 Fc)
T3 chain: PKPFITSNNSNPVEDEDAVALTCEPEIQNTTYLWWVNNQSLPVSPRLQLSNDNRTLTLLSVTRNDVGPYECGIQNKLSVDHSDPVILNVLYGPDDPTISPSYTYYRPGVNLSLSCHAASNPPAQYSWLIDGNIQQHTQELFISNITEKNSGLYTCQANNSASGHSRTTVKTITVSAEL
Put plainly: indirect ELISA / BIAcore.

For experiment [4], the target named is T1, Human IgG1 Fc-fused CEACAM5 A3B3 …. Kind of experiment: indirect ELISA, antigen coated on plate. The procedure:
(§1) Binding and specificity of scFv, Fab, or IgG to CEACAM related proteins were analyzed through indirect ELISA. Briefly, Fc-fused CEACAM5 polypeptides, CEACAM6 polypeptides, extra-cellular domain of CEACAM5 (R&D systems, 4128-CM), CEACAM6 (R&D systems, 3934-CM), or cynomolgus CEACAM5 (Sino biological, 90891-C08H) was coated on a 96 well plate (Corning, 3690) at 200 ng/well (50 μL volume) in PBS for 2 hours at room temperature. Blocking was carried out with 3% BSA in PBS for overnight at 4° C. Next day, various concentration of scFv, Fab, or IgG was treated to antigen coated plates and incubated for 1 hour at room temperature. After washing three times, anti-FLAG mouse antibody (M2 clone)-HRP conjugated (Sigma, A8592, 1:3000 dilution) or anti-human kappa goat antibody-HRP conjugated (Invitrogen, A18853, 1:3000 dilution) was treated for binding detection. Same volume of TMB (Thermo, PI34028) was added as a substrate, and then enzymatic reaction was stopped by adding of 2N sulfonic acid. The monomeric Fc fused-CD16a (Fc γRIIIa), CD64 (Fc γRIa) and CD32 (Fc γRIIa) were obtained from Prof. Wei Li (University of Pittsburgh, PA) and used for Fc gamma receptor (FcγR) binding test.

For experiment [5], the target named is T4, Human IgG1 Fc-fused CEACAM5 A3B3 (residues 501-682) (UniProt P06731 501-682).
T4 chain: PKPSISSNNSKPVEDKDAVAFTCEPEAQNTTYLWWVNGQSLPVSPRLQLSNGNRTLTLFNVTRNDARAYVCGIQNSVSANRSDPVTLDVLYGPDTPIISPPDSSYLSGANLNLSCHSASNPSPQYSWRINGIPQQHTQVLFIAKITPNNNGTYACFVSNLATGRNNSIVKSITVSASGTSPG
Kind of experiment: SPR (Biacore). (In general: In SPR one partner is held on a chip, and binding of the other changes the refractive index at the surface.)

The target of experiment [6] is T5, human CEACAM1 on Freestyle 293F cells (human, UniProt P13688 35-526).
T5 construct: whole, on cells; Gene carries a FLAG-tag at the C-terminal; Transiently expressed
T5 sequence (looked up): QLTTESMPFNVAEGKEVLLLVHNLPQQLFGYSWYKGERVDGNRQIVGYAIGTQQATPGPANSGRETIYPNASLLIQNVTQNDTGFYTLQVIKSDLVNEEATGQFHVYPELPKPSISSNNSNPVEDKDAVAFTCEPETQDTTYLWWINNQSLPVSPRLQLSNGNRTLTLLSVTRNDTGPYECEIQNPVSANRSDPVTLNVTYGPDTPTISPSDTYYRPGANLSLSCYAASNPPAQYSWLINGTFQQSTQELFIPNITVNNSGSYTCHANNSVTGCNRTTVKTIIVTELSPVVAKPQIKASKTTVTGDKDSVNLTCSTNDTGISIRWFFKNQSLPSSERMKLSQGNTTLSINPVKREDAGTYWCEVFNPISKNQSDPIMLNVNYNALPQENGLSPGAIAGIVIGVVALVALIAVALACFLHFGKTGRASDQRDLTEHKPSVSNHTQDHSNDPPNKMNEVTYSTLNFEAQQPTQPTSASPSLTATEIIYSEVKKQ
Put plainly: flow cytometry on transfected HEK293F cells. The protocol:
(§2) To determine the cell surface expression levels of CEACAM5 or CEACAM family proteins, the cells were stained with PE-conjugated anti-CEACAM5 IgG1 (Miltenyi Biotec, 130-114-217) or PE-conjugated anti-FLAG mouse antibody (Miltenyi Biotec, 130-101-576). To confirm cell surface binding of selected antibodies, cells were treated with a hIgG1 having the CDRs of Clone #1, a hIgG1 having the CDRs of Clone #2, or the Clone #1 Fab for 1 hour at 4° C. and then stained with Alexa647-conjugated goat anti-human IgG (Invitrogen, A21445) or FITC conjugated-goat anti-human kappa light chain (Invitrogen, A18854) for 0.5 hours at 4° C. For the internalization assays, cells (1×10⁵ cells/well in 96-well plate) were treated with Alexa488-labeled antibodies for durations between 0 and 30 hours. After incubation of antibodies, cells were washed with cold PBS, and then the remained cell surface binding antibodies were analyzed using Alexa488 fluorescence. For CAR expression on anti-CEACAM5 CAR-T cells, CD4⁺ T or CD8⁺ T cells were gated using APC-conjugated anti-human CD4 antibody (ebioscience, 17-0049-42) and eFluor450-conjugated anti-human CD8 antibody (ebioscience, 48-0088-42), and CAR expression was examined using FITC-labeled recombinant Protein L (Acrobiosystems, RPL-PF141).
(In general: In flow cytometry, cells or beads pass a laser one at a time.)

Experiment [7] deals with T6, human CEACAM8 on Freestyle 293F cells (human, UniProt P31997 35-320).
T6 construct: whole, on cells; Gene carries a FLAG-tag at the C-terminal; Transiently expressed
T6 sequence (looked up): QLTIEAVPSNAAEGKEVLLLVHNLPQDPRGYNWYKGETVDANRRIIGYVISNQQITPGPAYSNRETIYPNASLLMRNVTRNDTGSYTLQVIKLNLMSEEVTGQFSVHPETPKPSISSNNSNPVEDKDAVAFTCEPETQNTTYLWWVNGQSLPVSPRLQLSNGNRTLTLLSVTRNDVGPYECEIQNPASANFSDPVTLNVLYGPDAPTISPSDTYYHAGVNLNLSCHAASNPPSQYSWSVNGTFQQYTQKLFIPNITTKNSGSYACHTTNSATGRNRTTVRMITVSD
Put plainly: flow cytometry on transfected HEK293F cells. The protocol: as §2

Experiment [8] concerns the target T7, human CEACAM6 on Freestyle 293F cells (human, UniProt P40199 35-320).
T7 construct: whole, on cells; Gene carries a FLAG-tag at the C-terminal; Transiently expressed; also called CD66c
T7 sequence (looked up): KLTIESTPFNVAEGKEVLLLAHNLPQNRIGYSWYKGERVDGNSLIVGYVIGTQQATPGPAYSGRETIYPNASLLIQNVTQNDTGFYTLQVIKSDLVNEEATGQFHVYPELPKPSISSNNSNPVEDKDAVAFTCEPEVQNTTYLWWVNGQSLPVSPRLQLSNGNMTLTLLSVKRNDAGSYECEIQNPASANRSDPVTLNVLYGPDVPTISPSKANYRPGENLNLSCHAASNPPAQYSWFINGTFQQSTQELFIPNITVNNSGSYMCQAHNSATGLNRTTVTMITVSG
Kind of experiment: flow cytometry on transfected HEK293F cells. The protocol:
as §2

Experiment [9] has as its target T8, human CEACAM16 on Freestyle 293F cells (human, UniProt Q2WEN9 21-425).
T8 construct: whole, on cells; Gene carries a FLAG-tag at the C-terminal; Transiently expressed
T8 sequence (looked up): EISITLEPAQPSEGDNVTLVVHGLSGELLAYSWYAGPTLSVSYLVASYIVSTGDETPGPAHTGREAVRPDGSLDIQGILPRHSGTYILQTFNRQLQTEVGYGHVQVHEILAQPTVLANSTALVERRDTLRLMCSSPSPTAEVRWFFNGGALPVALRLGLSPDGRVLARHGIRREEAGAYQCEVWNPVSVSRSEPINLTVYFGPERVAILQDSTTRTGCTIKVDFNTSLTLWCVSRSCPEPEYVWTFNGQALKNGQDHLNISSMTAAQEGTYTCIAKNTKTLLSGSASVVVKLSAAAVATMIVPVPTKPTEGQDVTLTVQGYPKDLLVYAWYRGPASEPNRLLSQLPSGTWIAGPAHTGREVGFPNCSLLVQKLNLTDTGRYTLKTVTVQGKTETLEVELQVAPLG
Put plainly: flow cytometry on transfected HEK293F cells. The protocol:
as §2

Experiment [10] addresses T9, human CEACAM20 on Freestyle 293F cells (human, UniProt Q6UY09 31-596).
T9 construct: whole, on cells; Gene carries a FLAG-tag at the C-terminal; Transiently expressed
Put plainly: flow cytometry on transfected HEK293F cells. The protocol: as §2

The target in experiment [11] is T10, human CEACAM21 on Freestyle 293F cells (human, UniProt Q3KPI0 35-293).
T10 construct: whole, on cells; Gene carries a FLAG-tag at the C-terminal; Transiently expressed
T10 sequence (Q3KPI0 35-293): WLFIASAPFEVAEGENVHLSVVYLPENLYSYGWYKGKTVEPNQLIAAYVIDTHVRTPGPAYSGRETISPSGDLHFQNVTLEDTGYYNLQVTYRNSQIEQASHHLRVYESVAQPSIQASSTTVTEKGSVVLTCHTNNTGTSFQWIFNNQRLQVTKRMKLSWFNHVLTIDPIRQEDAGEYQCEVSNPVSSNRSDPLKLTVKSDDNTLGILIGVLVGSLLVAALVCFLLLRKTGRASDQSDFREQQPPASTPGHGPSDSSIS
Kind of experiment: flow cytometry on transfected HEK293F cells. The protocol:
as §2

Experiment [12] concerns the target T11, human CEACAM7 on Freestyle 293F cells (human, UniProt Q14002 36-242).
T11 construct: whole, on cells; Gene carries a FLAG-tag at the C-terminal; Transiently expressed
T11 sequence (looked up): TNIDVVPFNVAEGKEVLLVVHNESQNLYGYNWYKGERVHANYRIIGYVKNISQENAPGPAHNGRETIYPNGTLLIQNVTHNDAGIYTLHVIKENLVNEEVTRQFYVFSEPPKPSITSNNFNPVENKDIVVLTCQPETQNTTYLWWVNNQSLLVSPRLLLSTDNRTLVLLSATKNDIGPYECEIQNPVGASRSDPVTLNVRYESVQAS
Kind of experiment: flow cytometry on transfected HEK293F cells. The procedure: as §2

Experiment [13] concerns the target T12, human CEACAM18 on Freestyle 293F cells (human, UniProt A8MTB9 31-384).
T12 construct: whole, on cells; Gene carries a FLAG-tag at the C-terminal; Transiently expressed
T12 sequence (looked up): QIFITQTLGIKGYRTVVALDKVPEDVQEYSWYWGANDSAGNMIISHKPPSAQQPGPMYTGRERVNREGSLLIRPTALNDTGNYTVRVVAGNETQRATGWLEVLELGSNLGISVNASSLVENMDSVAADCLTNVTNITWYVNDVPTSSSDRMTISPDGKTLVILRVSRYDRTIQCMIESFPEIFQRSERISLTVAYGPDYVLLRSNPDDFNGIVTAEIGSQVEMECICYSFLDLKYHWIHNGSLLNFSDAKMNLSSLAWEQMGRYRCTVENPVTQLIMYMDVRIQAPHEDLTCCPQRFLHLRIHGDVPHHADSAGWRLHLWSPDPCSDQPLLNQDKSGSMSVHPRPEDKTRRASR
Kind of experiment: flow cytometry on transfected HEK293F cells. The procedure: as §2

The target of experiment [14] is T13, Fc-fused CEACAM5 A3B3 domain N580Q mutant (human, UniProt P06731 501-682).
T13 construct: N-glycosylation site mutant of A3B3-Fc; not shown: human IgG1 Fc carrier and its junction to A3B3
T13 chain: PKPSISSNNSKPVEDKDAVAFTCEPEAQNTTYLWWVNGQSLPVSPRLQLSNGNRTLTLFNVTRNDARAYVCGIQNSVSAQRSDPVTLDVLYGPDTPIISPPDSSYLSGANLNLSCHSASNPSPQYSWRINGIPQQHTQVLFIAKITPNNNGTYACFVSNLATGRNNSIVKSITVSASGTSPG
Put plainly: indirect ELISA. The protocol:
as §1, with “test. […]” for “test.”
(ELISA stands for enzyme-linked immunosorbent assay.)

T9 sequence (Q6UY09 31-596): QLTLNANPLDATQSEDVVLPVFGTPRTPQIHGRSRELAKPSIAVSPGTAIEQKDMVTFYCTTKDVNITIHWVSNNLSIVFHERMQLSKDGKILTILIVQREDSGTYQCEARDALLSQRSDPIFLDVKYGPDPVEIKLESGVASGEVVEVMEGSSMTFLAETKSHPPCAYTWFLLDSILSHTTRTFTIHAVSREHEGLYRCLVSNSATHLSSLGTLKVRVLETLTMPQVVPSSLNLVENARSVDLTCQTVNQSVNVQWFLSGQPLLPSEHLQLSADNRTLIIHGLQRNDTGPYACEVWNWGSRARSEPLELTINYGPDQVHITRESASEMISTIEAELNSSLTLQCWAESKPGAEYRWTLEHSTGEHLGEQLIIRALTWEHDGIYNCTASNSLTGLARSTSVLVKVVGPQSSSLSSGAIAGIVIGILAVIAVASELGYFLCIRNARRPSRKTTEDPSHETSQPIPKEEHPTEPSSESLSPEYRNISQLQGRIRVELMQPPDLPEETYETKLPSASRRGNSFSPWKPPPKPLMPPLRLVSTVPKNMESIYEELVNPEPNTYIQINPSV

B1: Clone #1 Fab (1G9 Fab) (Fab, V domains shown)
VH: QVQLVESGGGLVKPGGSLRLSCAASGFTFSDYYMSWIRQAPGKGLEWVSYISSSGSTIYYADSVKGRFTISRDNAKNSLYLQMNSLRAEDTAVYYCARIGRYSYGLRSYYYYGMDVWGQGTTVTVSS
VL: DIQMTQSPSSLSASVGDRVTITCRASQSISSYLNWYQQKPGKAPKLLIYAASSLQSGVPSRFSGSGSGTDFTLTISSLQPEDFGVYYCMQALQTPVTFGQGTRLEIKR
notes: Human Fab from a phage library (IGHV3-11 / IGKV1-39 frameworks), made in E. coli and purified on Ni-NTA
B1: the results for the Kd in [1] and in experiment [5] were 3 nM and 1.91 nM, respectively. Also, the binding result in [2], in [3], in experiment [6], in experiment [7], in experiment [8] and in experiment [9] was “no binding” each time. Further, the binding result in experiment [10] was “no binding”; in [11], “no binding”; in experiment [12], “no binding”; in experiment [13], “no binding”; in experiment [14], “binds”. This molecule also gave an EC50 in [4] of roughly 6 nM.
